From patent publication US20210338838A1

Assays:
[1] = target: C3b (complement component 3b) (UniProt P01024); test: relative C3b-binding assay, detection antibody AbCam OX-24 (#Ab112197)
[2] = target: C3b (complement component 3b) (UniProt P01024); test: relative C3b-binding assay, percent of CFH-Risk, detection antibody AbCam OX-24 (#Ab112197)
[3] = target: C3b (complement component 3b) (UniProt P01024); test: rank of binding affinity among six proteins, plate-based binding assays
[4] = target: C3b (complement component 3b) (UniProt P01024); test: cell-based or functional assay
[5] = target: C3b (complement component 3b) (UniProt P01024); test: plate-based binding assay, His-tagged recombinant protein from HEK293 cells

Sequence of protective CFH-I62-Y402-E936 (full-length complement factor H) (P08603 19-1231 V62I): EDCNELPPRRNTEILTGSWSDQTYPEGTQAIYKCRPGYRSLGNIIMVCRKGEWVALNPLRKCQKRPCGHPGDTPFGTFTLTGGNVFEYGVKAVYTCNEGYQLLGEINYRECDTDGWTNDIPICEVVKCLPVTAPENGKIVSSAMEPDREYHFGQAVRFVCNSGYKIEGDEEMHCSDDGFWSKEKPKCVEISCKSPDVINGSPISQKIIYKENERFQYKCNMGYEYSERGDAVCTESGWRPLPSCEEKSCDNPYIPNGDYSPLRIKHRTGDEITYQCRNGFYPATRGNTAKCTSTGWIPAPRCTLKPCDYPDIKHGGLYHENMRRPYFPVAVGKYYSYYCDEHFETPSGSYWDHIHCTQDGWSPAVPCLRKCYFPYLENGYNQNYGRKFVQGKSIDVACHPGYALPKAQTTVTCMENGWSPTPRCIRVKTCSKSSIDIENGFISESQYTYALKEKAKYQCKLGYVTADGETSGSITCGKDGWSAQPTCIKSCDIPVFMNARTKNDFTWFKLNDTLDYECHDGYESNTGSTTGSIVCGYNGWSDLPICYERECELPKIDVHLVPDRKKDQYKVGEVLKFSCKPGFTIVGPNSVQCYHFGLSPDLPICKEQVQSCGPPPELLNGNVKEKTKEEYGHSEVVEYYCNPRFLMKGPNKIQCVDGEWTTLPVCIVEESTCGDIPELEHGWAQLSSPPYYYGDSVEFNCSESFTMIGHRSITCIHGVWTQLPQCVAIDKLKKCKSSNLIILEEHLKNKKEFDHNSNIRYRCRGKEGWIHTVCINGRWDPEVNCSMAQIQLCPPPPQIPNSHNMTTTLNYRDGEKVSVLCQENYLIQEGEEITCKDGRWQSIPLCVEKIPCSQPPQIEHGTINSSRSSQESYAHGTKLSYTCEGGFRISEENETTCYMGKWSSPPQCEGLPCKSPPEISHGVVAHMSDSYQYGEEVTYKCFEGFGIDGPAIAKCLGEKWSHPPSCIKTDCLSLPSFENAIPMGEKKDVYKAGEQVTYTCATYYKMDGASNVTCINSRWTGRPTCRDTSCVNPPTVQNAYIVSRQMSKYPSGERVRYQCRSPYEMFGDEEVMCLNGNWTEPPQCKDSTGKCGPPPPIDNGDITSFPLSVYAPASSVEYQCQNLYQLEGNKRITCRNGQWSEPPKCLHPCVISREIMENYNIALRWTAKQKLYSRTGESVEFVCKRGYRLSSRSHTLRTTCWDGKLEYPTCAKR
Sequence of protective CFHT-I62-Y402 (truncated complement factor H ending in SFTL) (P08603 other isoform, or with tags, fused parts or gaps): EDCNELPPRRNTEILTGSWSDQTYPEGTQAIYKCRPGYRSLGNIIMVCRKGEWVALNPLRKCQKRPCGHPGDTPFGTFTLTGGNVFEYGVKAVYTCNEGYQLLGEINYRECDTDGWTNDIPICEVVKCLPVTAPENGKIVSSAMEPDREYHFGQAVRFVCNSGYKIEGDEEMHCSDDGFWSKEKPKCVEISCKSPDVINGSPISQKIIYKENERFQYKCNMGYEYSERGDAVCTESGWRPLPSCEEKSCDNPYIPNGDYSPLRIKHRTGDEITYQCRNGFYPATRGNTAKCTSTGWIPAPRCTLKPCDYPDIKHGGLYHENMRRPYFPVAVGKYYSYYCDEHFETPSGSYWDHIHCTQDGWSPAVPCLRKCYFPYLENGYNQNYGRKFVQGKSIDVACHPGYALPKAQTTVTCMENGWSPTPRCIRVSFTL
Sequence of CFH-Del (CFH of the CFHR3/1 deletion haplotype, V62-Y402-E936) (P08603 19-1231, stated change not applied): as the sequence (P08603 19-1231 V62I) above, with I44V counted along it
Sequence of CFHT-Neu/Del (truncated CFH of the neutral and deletion haplotypes, V62-Y402) (P08603 other isoform, or with tags, fused parts or gaps): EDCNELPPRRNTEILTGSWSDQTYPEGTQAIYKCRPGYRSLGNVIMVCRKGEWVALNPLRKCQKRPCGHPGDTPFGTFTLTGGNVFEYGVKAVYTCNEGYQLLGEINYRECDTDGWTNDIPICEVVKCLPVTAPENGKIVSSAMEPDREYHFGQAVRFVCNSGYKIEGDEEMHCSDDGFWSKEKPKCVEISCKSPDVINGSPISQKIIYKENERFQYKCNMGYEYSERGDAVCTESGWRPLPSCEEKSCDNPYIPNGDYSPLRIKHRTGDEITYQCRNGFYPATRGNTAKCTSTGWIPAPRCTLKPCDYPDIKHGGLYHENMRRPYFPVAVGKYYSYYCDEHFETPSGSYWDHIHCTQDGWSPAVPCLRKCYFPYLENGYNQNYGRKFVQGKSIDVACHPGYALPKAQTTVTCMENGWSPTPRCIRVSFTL

Row | Substance | Binding Potential [1] | % FH-Risk [2] | Binding Affinity Rank (1 best to 6 worst) [3] | Cofactor (IC50 value for iC3b 43-kDa band appearance) [4] | Kd [5]
1 | CFH-Del (CFH of the CFHR3/1 deletion haplotype, V62-Y402-E936) (from UniProt P08603 19-1231) | 24 | 107% |  |  | 
2 | CFH-Neu (neutral variant of full-length CFH, V62-Y402-D936) (from UniProt P08603 19-1231) | 29 | 134% |  |  | 
3 | CFH-V62-H402-E936 (risk variant of full-length CFH) (from UniProt P08603 19-1231) | 22 | 100% | 2 rank |  | 
4 | CFHT-Neu/Del (truncated CFH of the neutral and deletion haplotypes, V62-Y402) (from UniProt P08603 19-445) | 3 | 15% |  |  | 
5 | CFHT-V62-H402 (risk variant of truncated CFH) (from UniProt P08603 19-445) | 2 | 10% | 5 rank |  | 
6 | eCFHT-SE (engineered truncated CFH, I62-Y402, ending in SESFTL) (from UniProt P08603 19-445) |  |  | 6 rank | 0.0897 µM | 0.938 µM
7 | eCFHT-SK (engineered truncated CFH, I62-Y402, ending in SKSFTL) (from UniProt P08603 19-445) |  |  | 3 rank | 0.037 µM | 0.478 µM
8 | protective CFH-I62-Y402-E936 (full-length complement factor H) (from UniProt P08603 19-1231) | 29 | 133% | 1 rank | 0.0092 µM | 0.141 µM
9 | protective CFHT-I62-Y402 (truncated complement factor H ending in SFTL) (from UniProt P08603 19-445) | 4 | 17% | 4 rank | 0.0312 µM | 0.717 µM
